Experimental data from the nanobody polyreactivity screen of Harvey et al. (2022).

Assay: yeast display, Sf9 membrane polyspecificity reagent, FACS + sequencing; frameworks hold sequencing errors
Method in brief: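 Nanobodies from a synthetic yeast display library (Saccharomyces cerevisiae BJ5465), induced 36–48 hours with galactose, were stained 1 hour at 4 °C with 10% biotinylated, detergent-solubilized Sf9 membrane reagent, enriched on streptavidin microbeads, then FACS-sorted. Anti-HA (expression) and streptavidin (reagent binding) fluorescence set low and high (top ~1%) gates. Polyreactivity labels come from the gate of origin. Genes were colony-PCR amplified, MiSeq 2 × 250 sequenced and filtered by CDR length.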

| Sequence | polyreactivity (PSR sort gate) |
| --- | --- |
| QVQHAESGGGLDQAGGSLRLSCAASGGNFQANAMGWSRQATGKEREFVATITRGGGSTYYADSVKGRFTISRDNAKNTVYLQMNSLKPEDTAVYYCNSKPSYYQRYNYWGQGTQVTVSS | high polyreactivity |
| QVQHDQSGGGLVQAGGSLRLSCAASGRTFKPYVMGRYREAPGKERELVAAISSRGDITYYADSVKGRFTITRDNAKNTVYLQMNSLKPEDTAVYYCNAGPAVRSAYSTPYYDYWGQGTQVTVSS | low polyreactivity |
| QVQHEDSGGGLVQAGGSHRVSCAASGSTFAYNAMGGSRKAPGKERELVATISTDGSTYADSVKGRFTISRDNAQNTVYLQMNSLKPEDTAVYYCNADGHPSDPGYDYWGQGTQVTVSS | low polyreactivity |
| QVQHEESGGGLVQAGGSLRLSCAASGSIFSDYALGWYRPAPGKERELVAAITINGGSTYYADSVKGRFTISRDNAKITVYLQLNSLKPEDTAVEYCNAGWGRLYDYWGQGTQVTVSS | low polyreactivity |
| QVQHGESGGGLVQAGSSLRLSCAASGSTIVNNAMGWYRQAPGKERELVAANTSGGSTNYADSVKGRFTISRDNAKNTVYLQMNSLKPEDTAVYYSNADGDSWYTGIPAVSHGYWGQGTQVTVSS | low polyreactivity |
| QVQHVASGGGIDQAGGSLRLSCAASGFIFSWYALGWYRQAPGKERELVAGISIRGGRTYADSVKGRFTISRDNAKNTVYLQMNSLTPEDTAVYSCATRSYRPYHSLYDYWGQGTQVTVSS | high polyreactivity |
| QVQHVDSGGGLDHAGGSLRLSCAASGSIFAGYAMGWYRQAPAKERELDAAISSTGGRTYYADSVKGRFTISRDNAKTSVYLQMNSLKPEDTAVYYCGGAYYASYYYWGQGTQVTVSS | high polyreactivity |
| QVQHVDSGGGLVQAGGSLRLSCAASGSTFGYNAMGWYRQAPGKERELVAAITFSGDSTSYADSVKGRFTISRDNAKNSVYLQMNSLKPEDTAVYYCAVDTWNGDGSGYSLEFEYWGQGTQVTVSS | low polyreactivity |
| QVQHVESCGGLVQAGGSLRLSCAASGSIFTYYAMGWYRQAPGKEREFVAAISRRGGSTYYADSVKGRFTISRDNAKNTVYLQMNSLKPEDTAVYYCNARYTGSSLYYWGQGTQVTVSS | high polyreactivity |
| QVQHVESCGGLVQAGGSLRLSCAASGYIFSIYAMGWSRQAPGKERELVAAITWSGATTYYADSVKGRFSISRDNAKNTVYLQMNSLKPEDTAVYYCNADYWHYYEDYESWGQGTQVTVSS | low polyreactivity |
| QVQHVESGEGLVQAGGSLRLSCAASGSIFAGYAMGWYRQAPGKERELVAAITSSGGSTYYADSVKGRFTISRDNAKNTVYLQMNSLKPEDTAVYYCAKDKLIFYRVGSDYWGQGTQVTVSS | low polyreactivity |
| QVQHVESGGGIVQAGGSLRISCSASGRTLGYYAMGLYRQAPGKETEMVAASSRSGGSTYYADSVQGRFTNSRDNAKNTVYVEMQSLNPEDTAVYDCAATYGPSRYRYDYWGQGTQVTVSS | high polyreactivity |
| QVQHVESGGGIVQAGGSLRLSCAASGRTFGPYAMGWYRQAPGKEWELVAVISGRGTSTYYADSVKGRFTISRDNAKNTVYLQMNSLKPEDTAVYYCKADYGSWFWGFDYWGQGTQVTVSS | low polyreactivity |
| QVQHVESGGGIVQAGGSLRLSCAASGSTFWRNAMGWYRQAPGKEREFVASISWSGGGTYYADSVKGRFTISRDNEKNTVYLQMNSLKPEDTAVYYCAATPDWSYWYGNGDYDYWGQVTQVTVSS | low polyreactivity |
| QVQHVESGGGLDQAGGRLRLSCAASGFTFARNAMGWYRQAPGKDRELVAAINRSGGSTYYADSVKGRFTISRDNAKNTVYLQMNSLKPEDTAVYYCNAPYAQFTSGYDYWGQGTQVTVSS | high polyreactivity |
| QVQHVESGGGLDQAGGSLRLRCAAYGFTFSFYAMGWYRQEPGKERELVAAISYSGGITYYADSVKGRFTISRDNAKNTVYLQMNSLKPEDTAVYYCAAVPYYSKGSSLYNSGNNYWGQGTQVTVSS | low polyreactivity |
| QVQHVESGGGLDQAGGSLRLSCAASGSILTRYVMGWYRQAPGKERELVAAISQRGGSTYYADSVTGRFTISRDTAKYTVFLQMNSLKPEDTAVYYCAAETRVTSRRRFDYWGQGTQVTVSS | high polyreactivity |
| QVQHVESGGGLEQARGSLRLTCAASGRTFRYYAMAWYRQAPGKERELVASISDGGSTNYADSVNGRFTITRDNAKNTVYLQMNRLKPEDTAVYYCNSKCYVWYLYDEFGYWGQGTQVTVSS | low polyreactivity |
| QVQHVESGGGLGQAGGSLRLSCAASGRIFDEYALGSYRQAPGKERELVAAISLIGASTYYADSVKGRFTISRDTAKNTVYLQMNSQHPEDTAVYYCAAEYAFVVPGYYREVYYWGEGTQVTVSS | low polyreactivity |
| QVQHVESGGGLGQARRSLRLSCAASGTIINANAMGWDRQAPGKERELVASISGGAGSTYYADSVKGRFTISRDNAKNTVYLQMNSLKPEDTAVYYCAADRPYRYDYWGQGTQVTVSS | low polyreactivity |
| QVQHVESGGGLLQAGGSLRLSCAASGGTFTPNVMGWYRQAPGKVRELVAAIDDSGSRTYYADSVKGRFTISRDYAKNTVYLQMNSLKPEDTAVYFCAVFWYGTYPMYYWGQGTQVTVSS | low polyreactivity |
| QVQHVESGGGLLQAGGSLRLSSAATGSTNAMGWYRQAHGKERELVAAISRRGGSTYYADSVKGRFTISRDNAKKTVYLQMFSLKPEDTAVYYCAAPYSTFSYVYWGQGTQLTVSS | high polyreactivity |

| Sequence | polyreactivity (PSR sort gate) |
| --- | --- |
| QVQHVESGGGLVQAGASLRLSCAASGLTFYRYALGWYRQARGNERELVAAITSGTRTYYADSVKGRFTISRDNAKNTVYLQMYSLKPEDTAVYYCAASWQTRTYQSRYYYWGQGTQVTVSS | high polyreactivity |
| QVQHVESGGGLVQAGGILRLSSAASGSTFVKNGMGWSRQAPGKERELVAAISGRRGSTYYADSVKGRFTISRDNAKNTVYLQMNSLKPEDTAVYYCNKAYSVAYTYNYWGQGTQVTVSS | high polyreactivity |
| QVQHVESGGGLVQAGGRLRLSCAASGRIFGGYTMGWYRQAPGKERELVAAINSGGSTYYADSVKGRFTISRDNAKNTVYLQMNCLKPEDTAVYYCAKVRSYFGKYGYGYWGQGTQVTVSS | high polyreactivity |
| QVQHVESGGGLVQAGGRLRLSCAASGRTFPRYAIGLYRQAPGKERELVAAISVLAGITYYADSVKGRFTISRDNAKNTVYLQMNSLKPEDTAVYYCAKDHWTTSYDEGDYWGQGPQVTVSS | low polyreactivity |
| QVQHVESGGGLVQAGGRLRLSCAASGSIFVAYAMGWSRTAPGKERELVAAITYSAGSTYYADSVKGRITISRDNAKNTVYLQMNSLKPEDTAVYYCAADAMVFSFIGYEYWGQGTQVTVSS | low polyreactivity |
| QVQHVESGGGLVQAGGSLLLSCAASGSITVSYMGWYRQAPGKERELVAAISFSGASTYYADSVKGRFTISRDDAKNTVYLQMNSLKPEDTAVYYCAAEYVIYYWFEWLDLDYWGQGTQVTVSS | high polyreactivity |
| QVQHVESGGGLVQAGGSLRFSCAASGFIFIRNGMGWYRQAPGKERELVAAISARGGSTYYADSVKGRFTISRDNAKNTVYLQMNSLKPEDTALYYCAAYRPRKYDYWGQGTQVTVSS | high polyreactivity |
| QVQHVESGGGLVQAGGSLRLICAASGFSFILYAMGWYRQARGKERELVAAISSSGGRRYYADSVKGRFTISRDNANNTVYIQMNSLKPEDTAVYYCNAVRTVNDYHYDYWGQGTQVTVSS | high polyreactivity |
| QVQHVESGGGLVQAGGSLRLICAASGSTFRGYAMGWYRPAPGKERELVAAITSSGGSTYYADSVKGRFTISRDNAKNTVYLQMNSLKPEDTAVYSCAAASRRFGLYGYWGQGTQVTVSS | high polyreactivity |
| QVQHVESGGGLVQAGGSLRLRCAASGRTFGQNTMGWSRQAPGKERELVAAISWSGDSTYYADSVKGRFTISRDNAKNTVYLQMNSLKTEDSAVYYCAADPYNYYVSGYDYWGQGTQVTVSS | low polyreactivity |
| QVQHVESGGGLVQAGGSLRLSCAASGFIFDRYAMGWYRQAPGKERELVAAISSGGSTYYADSVKGRFTISRDNAKNTVYLQMNSLKPEDTAVYYCAAESWLNFIYEYDYWGQGTQVTVSS | low polyreactivity |
| QVQHVESGGGLVQAGGSLRLSCAASGFIFRRNVMGWYRQAPGKERELVAAISNSGGSTYYADSVKGRFTISRDNAKNTVYLQMNSLKPEDTAVYYCAAVYSYWGRYFEYGYWGQGTKVTVSS | high polyreactivity |
| QVQHVESGGGLVQAGGSLRLSCAASGFIFSKYAMGWYRPAPGKERELVAAITRSGGRTYYADSVKGRFTISRDNAKNTVYLQMNSLKPEDTAVYYCAASWLYFGRDYWGQGTQVTVSS | high polyreactivity |
| QVQHVESGGGLVQAGGSLRLSCAASGFIFTAYAMGWYRQAPGKERELVAGIRSGSSTYYADSVKGRFTISRDNAMNTVYLQMNSLKPEDTAVYYCNAEKYNFIYAYEYWGQGTQVTVSS | low polyreactivity |
| QVQHVESGGGLVQAGGSLRLSCAASGFIFWKNAMGWYSQAPGKERELVAAITVTGASTYYADSVKGRFTISRDNAKNTVYLQMNSLKPEDTAVYYCAAKTLSVGYVDPDYGRDYWGQGTQVTVSS | low polyreactivity |
| QVQHVESGGGLVQAGGSLRLSCAASGFIYSTNAMGWYRQAPGKERELVATIRSGGSTNYADSVKGRFTISRDNAKNTVYLQMNCLQPEDTAVYYCNVDDTSWTTSGGRFGQVESDYWGQGTQVTVSS | low polyreactivity |
| QVQHVESGGGLVQAGGSLRLSCAASGFTFLKNAMGWYRQAPGKERELVAAITSSGGRTYYADSVKGRFTISRDNAKNTVYCQMISLKPEDTAVYYCNKGPLPGYDYWGQGTQVTVSS | high polyreactivity |
| QVQHVESGGGLVQAGGSLRLSCAASGFTFYTYAMGWYRPAPGKERELVAAITSSGGSTYYADSVKGRFTISRDNAKNTVYLQMNSLKPEDTAVYYCNDRVRTQQRWVDYWGQGTQVTVSS | high polyreactivity |
| QVQHVESGGGLVQAGGSLRLSCAASGFTYFSNAMGWYREAPGKERELVASITNDGSTYADSVKGRFTISRDNAKNTVYLQMNRLKAEDTAVYYCAARFPKWRYSPRTGERFDYWGQGTQVTVSS | low polyreactivity |
| QVQHVESGGGLVQAGGSLRLSCAASGGIFRFYAMGWYRQAPGKERELVARITSSGGGTYYADSVKGRFTISRDNAKNTVYLQMNSLKPEDTAVSYCAALVYSSYPAGWYDYWGQGTQVTVSS | high polyreactivity |
| QVQHVESGGGLVQAGGSLRLSCAASGGTFVWYAMGWYRQAPGKERELVAAISSSGGRTYYADSVKGRFTISRDNAKNTVYLQMNSLKPEDTAVYYCNAAPYYVLYLLWSSNTYDYWGQGTQVTVSS | high polyreactivity |
